Source: the DeepSol protein solubility set

Assay: soluble on expression in E. coli; label from the status in PepcDB or PDB records

Soluble on expression in E. coli, soluble:
QDKITVTSEKPVAAADVPADAVVVGIEKMKYLTPEVTIKAGETVYWVNGEVMPHNVAFKKGIVGEDAFRGEMMTKDQAYAITFNEAGSYDYFCTPHPFMRGKVIVE
MSLQRLLQHSSNGNLADFCAGPAYSSYSTLTGSLTMDDNRRIQMLADTVATLPRGRKQLALTRSSSLSDFSWSQRKLVTVEKQDNETFGFEIQSYRPQNQNACSSEMFTLICKIQEDSPAHCAGLQAGDVLANINGVSTEGFTYKQVVDLIRSSGNLLTIETLNGTMILKRTELEAKLQVLKQTLKQKWVEYRSLQLQEHRLLHGDAANCPSLENMDLDELSLFGPLPGPGPALVDRNRLSSESSCKSWLSSMTMDSEDGYQTCVSEDSSRGAFSRQTSTDDECFIPKEGDDFLRRSSSRRNRSISNTSSGSMSPLWEGNLSSMFGTLPRKSRKGSVRKQLLKFIPGLHRAVEEEESRF
MNKKEIFKLAKGFRGRAKNCIRIARERVEKALQYSYRDRRNKKREMRGLWIERINAGSRQHGVNYGNFIHGLMKENIQLNRKVLSELSMHEPYSFKALVDVSRKSFPGNKNVVQASRKVDISSINA
MSYSIVRVSKVKSGTNTTGIQKHVQRENNNYENEDIDHSKTYLNYDLVNANKQNFNNLIDEKIEQNYTGKRKIRTDAIKHIDGLITSDNDFFDNQTPEDTKQFFEYAKEFLEQEYGKDNLLYATVHMDEKTPHMHYGVVPITDDGRLSAKEVVGNKKALTAFQDRFNEHVKQRGYDLERGQSRQVTNAKHEQISQYKQKTEYHKQEYERESQKTDHIKQKNDKLMQEYQKSLNTLKKPINVPYEQETEKVGGLFSKEIQETGNVVISQKDFNEFQKQIKAAQDISEDYEYIKSGRALDDKDKEIREKDDLLNKAVERIENADDNFNQLYENAKPLKENIEIALKLLKILLKELERVLGRNTFAERVNKLTEDEPKLNGLAGNLDKKMNPELYSEQEQQQEQQKNQKRDRGMHLLEHHHHHH
MAHHHHHHMRLLRLSTKVGMESNNAALRAHLLSLRGTEPVGDPKNPLHVQLQIHDGHRNTLLSHTKELYVTALQHHPETFVNVIPLLPLSDDESSPSNDGGASNDSITLFNAASMTADRGFTPLFSHVALGGTFDRLHAGHKLLLTTALFYASKSLRIGVTLESMLKKKTYGSYIEPFETRCKLVSEFLYSVRRDIDVTVVGITEPSGGTNRDAEIEALVVSPETAGVLASINDERASYGLKPLECIQIPYVSAEGDGRVSSTELRRRLHENASGAN

Soluble on expression in E. coli, not soluble:
MGSDKIHHHHHHMTTFTAKFIDQEWEVPVESGRYHMIVGEFCPYAQRPQIARQLLGLDKHISISFVDDVPSDIGLIFSQPEQVTGAKSLRDIYHLTDPTYQGPYTIPILIDKTDNRIVCKESADLLRLFTTDFSDLHQEDAPVLFSQETASLIDNDIKDINKNFQSLMYKLAFLDKQADYDTYSKEFFTFLDQKEHLLGQRPFLLGDNLSEVDIHFFTPLVRWDIAGRDLLLLNQKALEDYPNIFSWAKTLYNDFNLKTLTNPQSIKNNYYLGKFGRAVRHHTIVPTGPNMAKWEK
MINNSNDIGFIQDIAGLDKLRQKAVNGDENAGQSALTAAARQFESIFTSMMLKSMRDANSDFKSDLMSSQNEDLYRQMLDEQMASEFSSSGSLGLADMIVAQLSTGQTASEQKGEDGFQEAMRRVEHARKTASERSNEDLVAAVYPLRKTQAVQSTQFDSRHSFVTKLKPYADKAARMLGVDSSLLIAQAALETGWGQKMVKNARGNSNNLFNIKADRSWQGDKVATQTLEYHNNVPVVEKAAFRSYASFDESFNDYVRFLENNPRYTNALDHGGNSERFIHGIHRAGYATDPQYADKVLRVKAQIDQMNLL
MAEKRKLLAEIDKCFKKIDEGVELFEETMEKMHEANSDNQRDKYQDDLKKEIKKLQRLRDQVKNWQNASEIKDKDKLNSYRKLIEQRMEQFKDVERENKTKPHSKLGLSAEEKLDPKEKEKAETMDWIQHQIRSLNEEVDRTEMQLESLSNTDTGKGKRGKKEDAKTKNEREKRVEGLKHHLERINFHIEKLEICMRMISNESLNAKMVLETLKEPIETYVEMMNEEDSEEADNYDPDDAYDELNLEKLCQQIGGVNVASVDDEHRENGHELGIDTAESGAVSGSRHTSGENGQPPSPAGRRIVPLSMPSPHAVTPELKRLASKDSNVDRPRTPPVTPASAAPPPPGIPYNSVAAGRSTTTPVPSTPISANSPAPSLAQAAPIAAASPVFPPAAAAASKPVLAQSVSEMPQKKESITSTTSRGSAAAPATTTTTTTTTTSSEPAEVPLVVQQTVSETFVNGVDSPAAATRLTQQERQQQLQQQHHHQSTIIPTTPTTTTTSSSMLGGMMSTDDPAAALQAALNMAAASQQAVATGPKRAHIPAWLGASPLGRTSMTQEFDGQLAALELACAKATFPLDSEKPRNYLSKVSFPVPSWYGQTAPNTSDSLEYYLRLAPDTLFFIFYYMEGTRAQLLAAKALKKLSWRFHTKYLTWFQRHEEPKQITDDYEQGTYVYFDFEKWSQRKKESFTFEYKFLEDKEFD
MGSDKIHHHHHHMQGVPEHFTDERDYAQFRHLPTLPGIELYHAHICRYAFEPHTHEAFGIGTIDDGAEQFRYRGAKHIAPVDSLVLMNPDELHTGESATEDGWRYRMIYIPPDVLESVSGEKGWWFTDVVRHDPATARQLAMTLAALWQTTDPLASESLLLSLIALFRPHAHIAQRQVVEPFHRFDVVKAYLRENFAHTITLKELAALVSLSPYHFLRQFKTQFHVTPHQMLMAIRLYEAKQMLTRGMAAAHVALAVGLTDQAHLTRTFAQRYGVTPIRYQKQVYPTLR
MGSDKIHHHHHHMPRIKDGFKGERAIVLPAFLIEELKQDPLGSELYITDIGYYPHAYFHYRKRDTEEVTEFILIYCMEGEGWFELDKHQYAVTANQFFILPEHQAHAYGSNEENPWTIYWIHFNGTKAAFFSAGFDRPKSITPQEDSRIKERLVLFEEIYSSISFGYSKNYMLYATTSLFHFLGSMKFIGEYRDCGSMRNSYRNKDVVQIAIHFMQENLSKTIRLADIAAEVNLSVSYFSNLFEEKTGSSPLRYLTYLRIQEACHYLDFTNLKINQISPLVGYEDSLYFSRLFTKTMGVPPSAYKEKKKG
MNILLTSATGYLGRAIAAAIQSKGHRVTALARSAATAQRLEAAGIQPCRGDLTDAVALQQAAAQADAVIHTAATNDAAMGLVDRQAVKTLLAAIAGTQKPFLYTSGLWVMGNTGATVADETFPLNPPALVAWRPAVEALVLSAADQGVRSIVIRPALVYGRGGGLLPMLMQAGQSQGAVPVIGAGDNAWSFIHIDDLAALYVAAIEQAPARTLLIGASGESVSMQQVALTIAKTLGLGDRLQHLTLEEARAIWGDLADALTLDQRVSGDRARQLLHWQPVAPGVFQELTQGSYATKAIAALEHHHHHH
MGSDKIHHHHHHMVIFTQVVECGSFSGAAIATGHSNSYISKTLNKLEARVGVRLLNRTTRSISLTPEGQVYYEQCQQLVLDAHDAVSLLTQSHIEPKGVLKISCPTSFAENHLQEVMSAFMHQYPEVNLVLDLNDRHVDLVQDGFDLVIRATDKLAESSLVCRKIYSCKAYTVASHDYLKRFGLPQSPEQLSEHQCICYSNLKQANKWIYSHSNGTDNQVEVKAKLLCNSASMELAMVLAGHGICRLPAFVMEKELQDNKLAILFNDYITPTIDVYAIYPSRKHLSPKVRCFIDLLVDKMPRSLL
MQVIPLKPLDNKTLEEIGLDWHTNDDMSSYIADEMVVVSQKEADAYYDACNELYDMFVETAEEAIQNDRFFELDIPNALIPMIKQSFEEEVHWHIYGRFDLAGGLDGKPIKLLEFNADTPTMLYETAVIQWALLKANGYDENKQFNNLYEALGENFKRMVTLGEDTSRFEEMYEGWKILFSSVRGNIEEERTMRFLQDAAQSVGFETDFSYIDEVEFNIEEGVFKNGLNYEFLFKLIPWENIAIDEPELALLMQGMMENKNTIFLNPAYTILFQSKRFLKLLWDRYPNHPLLLETSYEPLANKKQIKKVAFGREGANSEIFEASMQSLLKTDGVYSNHKPVYQEFYELNSHNGLYYQPNVFFAYESCALGFRKGGLILDNFSKFVSHRLQ
MSKSDLRMKSNADKVIANLKKMTPIAEKEGAAMVNDSLAKIYQLIVPMTPIKSGDLRRGYRIIKARKLSSGRIVGALINNEKYFRYVNDGHRTKNGGFVKGRFMLQKSNKLANATYIPKRFKQMAIIIVKKG
MSLRLFGTHIQAAIRPVIWLLLWQASSGFANQVRVEVEGDYDQLQENAEILLGEVQDRTADGLRRYASSAAAQVEEAVRALGYYNPTIRWQVNEQDEAPAELVLTIVPGEPVRVRSRQVDIQGPGADDPDLVQSLPERPREGDILNHGEYDGLRQAIQNRAGRLGYFDGEYETRKLKVDPDANAADILLTYRTGERYQLGEVTFLEGHGFDEQLLRQFVTTEPGEPFHADKVARLNRDLSNSGYFSGVDIDASPSQAEDRVIPVTIGLTPRPPRSVSAGVGFSTDVGPRFRGNWREHYINSMGHKRGADTELSELRQSVSGWYELPLDPPMTDSIRLGTGYQREHVEDVESERLTFGQQWNHQLDDGWMQVLSMRWEGERFRIGDGERGTSSLLLPGVSYSKLQADSPLDPSRGFRLQLDVTGAHRAVLSDADILHVNLLAKGLYTLADNHRFLARFNFGGVATNNFSDVPPSLRFFAGGDQSVRGYGYETLSPEDSDGVAVGGRYLIVGSAEYQYEFARNWRVAAFVDEGNAVNDVFDPLATGVGVGIRWVSPVGPLRLDVARGLNEELGGGWRIHFSMGPEEGHHHHHH
MSVTVEQEAYEMPADNKKVMLKIEEVHLHSCGVFSNVYKGILREPYEKKIAIKKSWPEKGERNFEFIFLTGRERAKHKNVIHMIFAFSHSYDTKVCESYVFDFMPNTLAEVIRQKLTDLDIRLYTWQIFSGLKYLEEHKVVHRDLKPVNILVDHDTAFLKISDFGSAKIIVKGKANNFYQVTRFYRPPELLMKAMEYNSTVDVWSAGCIMAEMVKRHVVFPGRDSAHQLKLYCRCFGAPNEQDISAMKGEKLEKEYWKFTKGFGLQRLVNDISPDQLQFIKRILVYAPEKRLRGKQLLQDDFFRPLFKAGAVRHNGQKISDVITAADYKRAAENEESSACRLAQLVKTDNKDLGIPYCEKSNSYENVYARRSTLIPKEQKMARDNKSKEDSSDDRRVAPSSGEAPSAPGKRSESNKTAAIAKKSTMKSVMNAPPPRQKPE
MGSDKIHHHHHHMRNMQEKGVSEKEILEELKKYRSLDLKYEDGNIFGSMCSNVLPITRKIVDIFLETNLGDPGLFKGTKLLEEKAVALLGSLLNNKDAYGHIVSGGTEANLMALRCIKNIWREKRRKGLSKNEHPKIIVPITAHFSFEKGREMMDLEYIYAPIKEDYTIDEKFVKDAVEDYDVDGIIGIAGTTELGTIDNIEELSKIAKENNIYIHVDAAFGGLVIPFLDDKYKKKGVNYKFDFSLGVDSITIDPHKMGHCPIPSGGILFKDIGYKRYLDVDAPYLTETRQATILGTRVGFGGACTYAVLRYLGREGQRKIVNECMENTLYLYKKLKENNFKPVIEPILNIVAIEDEDYKEVCKKLRDRGIYVSVCNCVKALRIVVMPHIKREHIDNFIEILNSIKRD
